In the Immune Epitope Database (IEDB):
Blank lines part the entries; values can stand above or below the sequence they belong to.

Experiments:
HLA-A*32:01 = experiment: IEDB peptide-MHC binding, purified MHC/competitive/radioactivity; filed as Kd, often an IC50 or EC50 that approximates it; ≥ and ≤ were set here for values at or beyond the usual limits of such assays
HLA-A*02:01 [1] = experiment: IEDB peptide-MHC binding, purified MHC/direct/fluorescence; filed as Kd, often an IC50 or EC50 that approximates it; ≥ and ≤ were set here for values at or beyond the usual limits of such assays
HLA-A*69:01 = experiment: as above
HLA-A*02:02 = experiment: IEDB peptide-MHC binding, purified MHC/competitive/radioactivity; filed as Kd, often an IC50 or EC50 that approximates it; ≥ and ≤ were set here for values at or beyond the usual limits of such assays
HLA-A*02:03 = experiment: as above
HLA-A*02:06 = experiment: as above
HLA-A*11:01 = experiment: IEDB peptide-MHC binding, purified MHC/direct/fluorescence; filed as Kd, often an IC50 or EC50 that approximates it; ≥ and ≤ were set here for values at or beyond the usual limits of such assays; conditions: source organism: Mycobacterium tuberculosis
HLA-A*24:02 = experiment: IEDB peptide-MHC binding, purified MHC/competitive/radioactivity; filed as Kd, often an IC50 or EC50 that approximates it; ≥ and ≤ were set here for values at or beyond the usual limits of such assays
HLA-A*02:01 [2] = experiment: IEDB peptide-MHC binding, purified MHC/competitive/fluorescence; ≥ and ≤ were set here for values at or beyond the usual limits of such assays
HLA-B*58:01 = experiment: IEDB peptide-MHC binding, purified MHC/direct/fluorescence; filed as Kd, often an IC50 or EC50 that approximates it; ≥ and ≤ were set here for values at or beyond the usual limits of such assays; conditions: source organism: Mycobacterium tuberculosis str. Haarlem
HLA-B*27:05 = experiment: as above; conditions: source organism: SARS-CoV1
[3] = source organism: Dengue virus 2 Jamaica/1409/1983
[4] = source organism: Encephalitozoon cuniculi
[5] = source organism: Vaccinia virus WR
[6] = source organism: SARS coronavirus Tor2
[7] = source organism: Dengue virus 4 Philippines/H241/1956
[8] = source organism: Zaire ebolavirus
[9] = source organism: Marburg virus - Musoke, Kenya, 1980
[10] = source organism: Mycobacterium tuberculosis
[11] = source organism: Dengue virus 3 Martinique/1243/1999
[12] = source organism: Bacillus cytotoxicus
[13] = source organism: Sudan ebolavirus

Sequence: RSGAYVSAI
Kd (HLA-A*32:01; [3]): 378 nM

Kd (HLA-A*02:01 [1]; [4]): 7000 nM | Kd (HLA-A*69:01; [4]): ≥ 20000 nM
Sequence: YLVPGEGEQ

Sequence: KTSGYISSF
Kd (HLA-A*32:01; [5]): 0.502 nM

Sequence: KNFAGPVSQ
Kd (HLA-A*32:01; [3]): ≥ 44900 nM

Sequence: LMYKGLPWNV
Kd (HLA-A*02:02; [6]): 1.75 nM | Kd (HLA-A*02:03; [6]): 5.34 nM | Kd (HLA-A*02:06; [6]): 37.1 nM

Sequence: DTQGSNWIQK
Kd (HLA-A*32:01; [3]): 267 nM

Sequence: TTFGRIGVK
Kd (HLA-A*11:01): 2 nM

Sequence: GLFDINVIGL
Kd (HLA-A*02:02; [5]): 0.163 nM | Kd (HLA-A*02:03; [5]): 1.43 nM | Kd (HLA-A*02:06; [5]): 240 nM

Sequence: HLSNYIVSI
Kd (HLA-A*32:01; [5]): 0.986 nM

Sequence: NYRPGYFTQ
Kd (HLA-A*24:02; source organism: Dengue virus 1 Brazil/97-11/1997): ≥ 44400 nM

Sequence: LSPETLVGV
IC50 (HLA-A*02:01 [2]; source organism: Vaccinia virus): 904 nM

Sequence: NLILNFLDWI
Kd (HLA-A*02:02; [5]): 1690 nM | Kd (HLA-A*02:03; [5]): 283 nM | Kd (HLA-A*02:06; [5]): 443 nM

Sequence: YVILTILTI
Kd (HLA-A*24:02; [7]): 6010 nM

Sequence: SGQSPARTS
IC50 (HLA-A*02:01 [2]; [8]): ≥ 234000 nM

Sequence: IAVANCVRNL
Kd (HLA-A*02:02; [5]): 57.1 nM | Kd (HLA-A*02:03; [5]): 467 nM | Kd (HLA-A*02:06; [5]): 9120 nM

Sequence: SLKRFTHTT
Kd (HLA-A*02:02; [5]): 825 nM | Kd (HLA-A*02:03; [5]): 9.05 nM | Kd (HLA-A*02:06; [5]): ≥ 60100 nM

Sequence: DVGCLLTDT
Kd (HLA-A*02:02; [5]): ≥ 77800 nM | Kd (HLA-A*02:03; [5]): ≥ 65400 nM | Kd (HLA-A*02:06; [5]): ≥ 77100 nM

Sequence: AISYCRAFI
Kd (HLA-A*02:02; [5]): 17.2 nM | Kd (HLA-A*02:03; [5]): 149 nM | Kd (HLA-A*02:06; [5]): 146 nM

Sequence: HMILVVVTT
Kd (HLA-A*32:01; [7]): ≥ 77800 nM

Sequence: KLYGYASLTT
Kd (HLA-A*02:02; [5]): 1.88 nM | Kd (HLA-A*02:03; [5]): 0.261 nM | Kd (HLA-A*02:06; [5]): 34 nM

Sequence: KGGTGGWLW
Kd (HLA-B*58:01): 43.3 nM

Sequence: VMNPLGLNV
Kd (HLA-A*02:01 [1]; [9]): 320 nM | Kd (HLA-A*69:01; [9]): 780 nM

Sequence: RIVVALSSLV
Kd (HLA-A*02:02; [5]): 47.6 nM | Kd (HLA-A*02:03; [5]): 7.21 nM | Kd (HLA-A*02:06; [5]): 9.62 nM

Sequence: YLPRFLFGV
Kd (HLA-A*02:01 [1]; [10]): 1.8 nM

Sequence: LFSYGTLII
IC50 (HLA-A*02:01 [2]; source organism: Variola virus): ≥ 72600 nM

Sequence: TAFFNTCKPT
Kd (HLA-A*02:02; [5]): ≥ 31600 nM | Kd (HLA-A*02:03; [5]): ≥ 22300 nM | Kd (HLA-A*02:06; [5]): ≥ 33000 nM

Sequence: TIFTLTVAW
Kd (HLA-A*32:01; source organism: Dengue virus 3 Sri Lanka/1266/2000): 157 nM

Sequence: AMIHKTYIDV
Kd (HLA-A*02:02; [5]): 335 nM | Kd (HLA-A*02:03; [5]): 26.7 nM | Kd (HLA-A*02:06; [5]): 206 nM

Sequence: WRLSAQWQKG
Kd (HLA-A*32:01; [11]): ≥ 36000 nM

Sequence: ILSNKLLYAA
Kd (HLA-A*02:02; [5]): 8.09 nM | Kd (HLA-A*02:03; [5]): 1110 nM | Kd (HLA-A*02:06; [5]): 150 nM

Sequence: ALSGFYYVQ
Kd (HLA-A*02:01 [1]; [12]): 1400 nM | Kd (HLA-A*69:01; [12]): 2360 nM

Sequence: TWAYHGSYET
Kd (HLA-A*24:02; [3]): 2160 nM

Sequence: ITPTIEDDKI
Kd (HLA-A*02:02; [5]): 18700 nM | Kd (HLA-A*02:03; [5]): 4200 nM | Kd (HLA-A*02:06; [5]): 1500 nM

Sequence: VLYNNVVEF
Kd (HLA-A*32:01; [5]): 1.45 nM

Sequence: STISWMMKL
Kd (HLA-A*02:02; [5]): 92.2 nM | Kd (HLA-A*02:03; [5]): 22.8 nM | Kd (HLA-A*02:06; [5]): 12.1 nM

Sequence: VTDKTAYIGT
Kd (HLA-A*02:02; [5]): ≥ 21800 nM | Kd (HLA-A*02:03; [5]): 4000 nM | Kd (HLA-A*02:06; [5]): 227 nM

Sequence: DTIESAKTKI
Kd (HLA-A*02:02; [5]): ≥ 47900 nM | Kd (HLA-A*02:03; [5]): ≥ 50500 nM | Kd (HLA-A*02:06; [5]): ≥ 69800 nM

Sequence: DSMFLMTAT
IC50 (HLA-A*02:01 [2]; source organism: Variola virus): 4400 nM

Sequence: ISGVFPVSI
Kd (HLA-A*32:01; [3]): 1120 nM

Sequence: ITAIYVFCI
Kd (HLA-A*02:02; [6]): 28.7 nM | Kd (HLA-A*02:03; [6]): 89.2 nM | Kd (HLA-A*02:06; [6]): 132 nM

Sequence: GLITSTVTG
IC50 (HLA-A*02:01 [2]; [13]): 12400 nM

Sequence: PAHLINKLL
Kd (HLA-A*02:02; [5]): 6690 nM | Kd (HLA-A*02:03; [5]): 6310 nM | Kd (HLA-A*02:06; [5]): ≥ 42300 nM

Sequence: IHDFIDNPL
IC50 (HLA-A*02:01 [2]; [13]): ≥ 103000 nM

Sequence: LLDDFVEII
Kd (HLA-A*02:02; [6]): 136 nM | Kd (HLA-A*02:03; [6]): 523 nM | Kd (HLA-A*02:06; [6]): 159 nM

Sequence: SQFSYKELYV
Kd (HLA-A*02:02; [5]): 14.1 nM | Kd (HLA-A*02:03; [5]): 27.2 nM | Kd (HLA-A*02:06; [5]): 71.4 nM

Sequence: LLTHGADPNA
Kd (HLA-A*02:02; [5]): 9610 nM | Kd (HLA-A*02:03; [5]): 7510 nM | Kd (HLA-A*02:06; [5]): 15800 nM

Sequence: ILGIIITVGM
Kd (HLA-A*02:02; [5]): 288 nM | Kd (HLA-A*02:03; [5]): 265 nM | Kd (HLA-A*02:06; [5]): 4710 nM

Sequence: IVQSVLRDI
Kd (HLA-A*02:02; [5]): ≥ 77800 nM | Kd (HLA-A*02:03; [5]): 101 nM | Kd (HLA-A*02:06; [5]): 1310 nM

Sequence: SLGGVFTSI
Kd (HLA-A*32:01; [3]): 294 nM

Sequence: EVKTCTWPKS
Kd (HLA-A*32:01; [11]): ≥ 48400 nM

Sequence: VVEPPRQLV
Kd (HLA-A*02:01 [1]; [10]): ≥ 5000 nM | Kd (HLA-A*69:01; [10]): 20000 nM

Sequence: LLVQYGAKI
Kd (HLA-A*02:02; [5]): 206 nM | Kd (HLA-A*02:03; [5]): 358 nM | Kd (HLA-A*02:06; [5]): 1140 nM

Sequence: PGPDNSTHN
IC50 (HLA-A*02:01 [2]; [8]): ≥ 472000 nM

Sequence: PTVAPPAPV
IC50 (HLA-A*02:01 [2]; [8]): ≥ 171000 nM

Sequence: LLNNYTLKI
Kd (HLA-A*32:01; [5]): 25.4 nM

Sequence: SRYWEPEFY
Kd (HLA-B*27:05): 1190 nM

Sequence: TMLSIILVI
Kd (HLA-A*32:01; [5]): 15.6 nM

Sequence: TTENAAYQV
Kd (HLA-A*02:02; [5]): ≥ 77800 nM | Kd (HLA-A*02:03; [5]): ≥ 51300 nM | Kd (HLA-A*02:06; [5]): 442 nM
